Measured values taken from the RNAGym collection of RNA variant scans (doi:10.1073/pnas.2313332121).

B1: TPR t1 (parent)
chain: GACCAAUCUGCCCUCAGAGCUCGAGAACAUCUUCGGAUGCAGAGGAGGCAGGCUUCGGUGGCGCGAUAGCGCCAACGUCCUCAACCUCCAAUGCAUCCCACCACAUGAUGAUGCCUGAAGAGCCUUGGUUUUUUG

Variants of: B1
Experiment: polymerase ribozyme fitness, log enrichment relative to wild type (log ratio); higher = more active; in vitro selection for triplet polymerase activity
How it was run: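 Fitness compares each genotype's enrichment to that of the wild type on a logarithmic scale, averaging replicates with inverse-variance weights. The logarithm is base 2. Enrichment came from Illumina sequencing of input and output libraries after one triplicate round of in vitro selection, which included frozen incubation at −7 °C, of PCR-built, transcribed mutant libraries of each subunit of a heterodimeric triplet polymerase ribozyme. Only genotypes with ≥10 input reads and ≥1 read per output were kept.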

| Variant | polymerase ribozyme fitness (log ratio) |
| --- | --- |
| G17C G120C | -1.58 |
| A27C C62G | -4.48 |
| C82U C88U | -0.335 |
| C20U C101U | -1.97 |
| C56U C72U U116C G117U G120U | -3.95 |
| A43G G63U C115U | -4.05 |
| C22A C115G | -3.77 |
| C22U C62U | -4.34 |
| G36U C72U | -1.51 |
| C13U C79A C104A | -2.96 |
| C22A A119G | -3.88 |
| U9A U96A C124U | 1.28 |
| A41C C82A A111C | -2.14 |
| C88A C101G A119U | -3.66 |
| U7G A16C U55G C88U A95U | -1.79 |
| A6U C49U G60A C94G G113A | -3.92 |
| C64U C123G | 1.86 |
| A41U U129C | -0.914 |
| U78A G128A | -1.76 |
| G110U G120A | -2.47 |
| C4U G48U G52U C73U A90U C124G | -2.07 |

| Variant | polymerase ribozyme fitness (log ratio) |
| --- | --- |
| A26U A46C G63A G120U | -5 |
| C12A A43G C62U C124G G127U | -0.505 |
| C72U C124U G135A | 2.03 |
| G61C G117C | -3.51 |
| C62A U106G A121G | -0.77 |
| A26U C64U C82A G93A | -4.48 |
| A27C G57C | -3.36 |
| C49U G127A | -1.64 |
| C72U A119G | 0.547 |
| C80A C115U | -4.97 |
| C13A C53U C114U G120A | -3.61 |
| C20A G45A G113U | -0.291 |
| A2G C13A C72U U129G | -2.36 |
| A29U G47C C85U C123U | -4.09 |
| A27U A95C | -4.26 |
| C73U A83G | -1.56 |
| U87C U116A A121G | 1.1 |
| G47U A66C C115U U130A G135A | -5.53 |
| C72U U87G | -1.61 |
| C3U G17U G63U C73U | -4.23 |
| G57U C89U | -0.78 |

| Variant | polymerase ribozyme fitness (log ratio) |
| --- | --- |
| C8A G36U U112A G127U | 2.16 |
| A5C C13U C70U A84C U131A | -1.24 |
| C11U A37U C49A C123U | 0.929 |
| C15U C34A C123U | -3.01 |
| C20A C70U C76G | -3.5 |
| G10A C82A A95U | -0.318 |
| G107C | -5.46 |
| A29G G69A C86A U112A C123G | -3.48 |
| C13U U54A G61A | -0.0236 |
| U7G A27G G48C | -0.78 |
| C64U U92G | -3.31 |
| U32C C73U A118G | -0.657 |
| A43C C76U A91C G93C U112C G113U U116C | -6.51 |
| U14A A74G G77C G120C | -0.447 |
| U7A G110C | -3.41 |
| C28U G113U | -4.02 |
| C13U C34U G52C | -4.17 |
| C28U A121U | 0.361 |
| G47A C70U G77U G93A | -3.29 |
| A29G A50U C73G | -1.85 |
| A105G G113U | -5.05 |

| Variant | polymerase ribozyme fitness (log ratio) |
| --- | --- |
| C62U U92C U116C A119G | 0.218 |
| C13A G36C C53G A95C | -4.38 |
| C28U G69A | -4.67 |
| U7C A46G A108G C123A | -1.51 |
| C13U U109G | -4.64 |
| C8A U33G A37U | -6.73 |
| C49U C73A A74U C102U | -3.4 |
| C62G G71U C97A A119G | -4.38 |
| G63C C98G U116A C124G | -5.39 |
| C86G C123U | 0.323 |
| C72U G122A | -0.576 |
| A18C C49G | -3.27 |
| U38G A95C A100C U106A G127A | -3.43 |
| G35U G63U C104G | -7.12 |
| C12G C28G | -1.82 |
| A26U G61U C79U G93C G120C | -3.87 |
| C22U G60C | -4.82 |
| C15A C76A | -2.53 |
| A29U U78A | -1.8 |
| A18U G36U | -3.48 |
| G69U C89A | -0.471 |
